{"source": "paper PMC3561948", "molecules": {"B1": {"name": "50-mer IR DNA (SEC2 duplex) (dsDNA)", "DNA 1": "TTTAAAAAAAACGACATTTCATACTTGTACACCTGATAGTTTCTATATTC", "DNA 2": "GAATATAGAAACTATCAGGTGTACAAGTATGAAATGTCGTTTTTTTTAAA"}}, "key": {"[1]": {"target": "Mos1 transposase (containing the solubilizing mutation T216A), hydrogenated (Drosophila mauritiana)", "test": "SAXS + SANS"}, "[2]": {"target": "Mos1 transposase (containing the solubilizing mutation T216A), hydrogenated (Drosophila mauritiana)", "test": "[…], room temperature, 20 mM Tris pH 7.5, 0.3 M KCl, 1 mM DTT"}, "[3]": {"target": "Mos1 transposase (containing the solubilizing mutation T216A), hydrogenated (Drosophila mauritiana)", "test": "SEC-MALS"}, "[4]": {"target": "Mos1 transposase (containing the solubilizing mutation T216A), hydrogenated (Drosophila mauritiana)", "test": "SAXS + SANS", "remark": "listed apart in the source"}, "[5]": {"target": "N130 Mos1 (the N-terminal 130 amino acids of Mos1 transposase, DNA-binding domain) (Drosophila mauritiana)", "test": "SEC-MALS"}, "[6]": {"target": "T1, H-Mos1 transposase (UniProt Q7JQ07 1-345, T216A)", "T1 sequence": "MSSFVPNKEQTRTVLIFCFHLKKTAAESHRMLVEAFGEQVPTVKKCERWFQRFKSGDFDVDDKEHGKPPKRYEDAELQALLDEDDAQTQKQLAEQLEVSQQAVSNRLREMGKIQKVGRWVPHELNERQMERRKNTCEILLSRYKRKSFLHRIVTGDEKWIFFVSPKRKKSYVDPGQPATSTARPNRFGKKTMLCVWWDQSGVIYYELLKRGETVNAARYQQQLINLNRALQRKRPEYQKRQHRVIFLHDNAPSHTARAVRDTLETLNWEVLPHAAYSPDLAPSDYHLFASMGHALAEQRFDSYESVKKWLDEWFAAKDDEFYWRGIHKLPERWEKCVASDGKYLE"}, "[7]": {"target": "T2, D-Mos1 transposase (UniProt Q7JQ07 1-345, T216A)", "T2 sequence": "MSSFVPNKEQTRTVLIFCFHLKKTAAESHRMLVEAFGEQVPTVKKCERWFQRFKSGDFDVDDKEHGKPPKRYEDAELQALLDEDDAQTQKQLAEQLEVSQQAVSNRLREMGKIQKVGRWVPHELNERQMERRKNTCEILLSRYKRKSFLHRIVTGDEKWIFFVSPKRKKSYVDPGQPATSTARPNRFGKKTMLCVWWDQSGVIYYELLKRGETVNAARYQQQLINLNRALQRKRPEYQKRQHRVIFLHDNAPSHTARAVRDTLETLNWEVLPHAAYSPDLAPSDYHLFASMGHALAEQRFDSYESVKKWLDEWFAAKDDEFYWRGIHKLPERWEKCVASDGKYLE", "test": "SANS contrast variation"}}, "note": "Where “and” joins values, the source holds several entries; their conditions need not be identical. Identical values can stand only once.", "data": [{"molecule": "Mos1 transposase (containing the solubilizing mutation T216A), hydrogenated (enzyme)", "values": [{"measurement": "stoichiometry N", "setting": "[1]", "value": 2}, {"measurement": "stoichiometry N", "setting": "[2]", "value": 2}, {"measurement": "stoichiometry N", "setting": "[3]", "value": 2}, {"measurement": "stoichiometry N", "setting": "[4]", "value": 2}]}, {"molecule": "N130 Mos1 (the N-terminal 130 amino acids of Mos1 transposase, DNA-binding domain) (domain or fragment)", "values": [{"measurement": "stoichiometry N", "setting": "[5]", "value": "2 and 4"}]}, {"molecule": "B1", "values": [{"measurement": "binding result", "setting": "[6]", "value": "binds"}, {"measurement": "binding result", "setting": "[7]", "value": "binds"}]}]}
